According to patent US12152264B2, “Phosphinothricin dehydrogenase mutant, genetically engineered bacterium and one-pot multi-enzyme synchronous directed evolution method” (ZHEJIANG UNIVERSITY OF TECHNOLOGY, priority 2020, dated 2024):

Legend:
CP(=O)(O)CCC(=O)C(=O)O = experiment: cells, lysate or membranes named; settings: pH 7.0; 40.0 °C
[1] = test system: Pseudomonas fluorescens phosphinothricin dehydrogenase (PPTDH, PfGluDH; WP_150701510.1) mutant A164G_R205K_T332A, SEQ ID No.1; assay type: biochemical

| Molecule | Km (CP(=O)(O)CCC(=O)C(=O)O) [mM] | kcat (CP(=O)(O)CCC(=O)C(=O)O) [s⁻¹] | kcat/Km (CP(=O)(O)CCC(=O)C(=O)O) [M⁻¹ s⁻¹] | catalytic efficiency (kcat/Km) for PPO, increase compared with the wild type [1] [times] |
| --- | --- | --- | --- | --- |
| Pseudomonas fluorescens phosphinothricin dehydrogenase (PPTDH, PfGluDH; NCBI accession number WP_150701510.1), wild type (Pseudomonas azerbaijanoccidentalis) | 6.12 ± 0.32 | 7.47 ± 0.22 | 1220 |  |
| CP(=O)(O)CCC(=O)C(=O)O [PPO, 2-carbonyl-4-(hydroxymethylphosphono)butyric acid] |  |  |  | 145.83 |
